Reference: patent US20210032330A1 (PHANES THERAPEUTICS, published 2021)
Positions count from the first letter of the chain named. Where two headings read alike, the source gives them in different places. One block for each binder: values may come before it.

Tests used:
[1] = target: T1, human T-cell immunoglobulin and mucin-domain containing molecule 3 (TIM-3) (human, UniProt Q8TDQ0 22-200, limits assumed); test: ELISA, recombinant human TIM-3(ECD)-6His coated on the plate, anti-human IgG-HRP detection, absorbance at 450 nm
T1 construct: also called Human TIM-3
Experimental: (§1) Recombinant human TIM-3(ECD)-6His in carbonate coating buffer was coated on an ELISA plate at 4° C. overnight.

[2] = target: T1, human T-cell immunoglobulin and …; test: as above; remark: listed apart in the source
Experimental: as §1

[3] = target: T1, human T-cell immunoglobulin and …; test: competition ELISA: pre-equilibrated mixture of mAb and human TIM3(ECD)-huFc on plate-coated phosphatidylserine (PtdSer, a lipid), anti-huFc-HRP detection, % inhibition
Experimental: ELISA plates were coated with PtdSer or PtdChol, washed and incubated with a pre-equilibrated mixture of purified antibodies at various concentrations and TIM3(ECD)-huFc. The plates were washed and then the signal was detected by incubation with HRP-coupled anti-huFc secondary antibody and then a HRP substrate. TIM-3 binding to PtdSer was used as 100% signal and TIM-3 binding to PtdChol as zero (background) to calculate percent of inhibition by a given mAb.
To determine the effect of anti-TIM-3 antibodies on the interaction of TIM-3 with phosphatidylserine (PtdSer), 384-well ELISA plates were coated with PtdSer or phosphatidylcholine (PtdChol) at room temperature. The wells were washed using PBS supplemented with 0.1% Tween-20 and then blocked using PBS supplemented with 2% bovine serum albumin (BSA). […] The plates were washed and then incubated with HRP-coupled anti-huFc secondary antibody. Plates were washed, incubated with an HRP substrate, and read using a POLARstar Omega Microplate (BMG LABTECH). The assay was performed in triplicate.

[4] = target: T1, human T-cell immunoglobulin and …; test: BLI (OCTET Red96), mAb on anti-mouse Fc biosensor, antigen in solution, 1:1 model
Experimental: Binding experiments were performed on OCTET Red96 at 25° C. Antibodies were loaded onto Anti-Mouse Fc (AMC) biosensors. Loaded sensors were dipped into serial dilutions of antigen. Kinetic constants were calculated using a monovalent (1:1) model. The assay buffer was PBS supplemented with 0.1% BSA, 500 mM NaCl, 0.02% Tween-20, pH 7.2.

EC50 (read off the curve) [1]: ~0.09 nM
B3: H2L1 (antibody, V domains shown)
VH: EVQLVESGGGLVQPGGSLRLSCAASGYTFTSSDINWVRQAPGKGLVWIGWIFPGDGSTKYTPSLKDQATLSTDLAKNTAYLQMNSLRAEDTAVYFCARGLDYWGQGTLVTVSS
VL: DIQMTQSPSSLSASVGDRVTITCKASQDINSYLGWFQQKPGKAPKTLIYRADRLVDGVPSRFSGSGSGQDYTFTISSLQPEDIATYYCLQYDEFPLTFGQGTKLEIK
notes: also called humanized version of anti-TIM-3 mAb 16-K5-A, VH H2 with VL L1

EC50 (read off the curve) [1]: ~0.09 nM
EC50 (read off the curve) [2]: ~0.2 nM
B7: Chimeric (antibody, V domains shown)
VH: QVQLQQSGAELVKPGASVKLSCKASGYTFTSSDINWVRQRPEQGLEWIGWIFPGDGSTKYNEKFKGKATLTTDKSSSTAYMQLSRLTSEDSAVYFCARGLDYWGQGTTLTVSS
VL: DIKMTQSPSSMYASLGERVTITCKASQDINSYLGWFQQKPGKSPKTLIYRADRLVDGVPSRFSGSGSGQDYSLTISSLEYEDMGIYYCLQYDEFPLTFGAGTKLELK
notes: detected with anti-human IgG-HRP; also called chimeric version of anti-TIM-3 mAb 16-K5-A

Kd [4]: 16 nM
B9: anti-TIM-3 monoclonal antibody 10-M21-A (antibody, V domains shown)
VH: DVQLQESGPTLVKPSQTLSLTCSVTGDSITSGYWNWIRKFPGNKLEYMGYISYSGSTYYNPSLKSRISIIRDTSKNQYYLQLNSVTTEDTATYYCVSGNHFDYWGQGTTLTVSS
VL: DIQMTQSPSSLSASLGGKVTITCKASQDINRYIAWYQHKPGKGPRLLIHYTSTLQPGIPSRFSGSGSGRDYSFSISNLEPEDIATYYCLQYDNLLFTFGSGTKLEIK
notes: Mouse hybridoma mAb; captured on anti-mouse Fc biosensors

Kd [4]: 2.7 nM
B10: anti-TIM-3 monoclonal antibody 16-J5-A (antibody, V domains shown)
VH: DVQLVESGGGLVQPGGSRKLSCAASGFTFSSFGMNWVRQAPEKGLEWVAYISSGSSTIYYADTVKGRFTISRDNPKNTLFLQMTSLRSEDTAMYYCARWGRWADFDYWGQGTTLTVSS
VL: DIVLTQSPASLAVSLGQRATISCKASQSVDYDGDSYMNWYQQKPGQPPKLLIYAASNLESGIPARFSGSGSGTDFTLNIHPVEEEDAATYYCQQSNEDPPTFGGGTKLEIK
notes: as for B9

Kd [4]: 14 nM
B11: anti-TIM-3 monoclonal antibody 16-L3-A (antibody, V domains shown)
VH: QVQLQQSGPELVKPGASVKMSCKASGYTFTSYYIHWVKQRPGQGLEWIGWIYPGDGSTKYNEKFKGKTTLTADKSSSTAYMLLSSLTSEDSAIYFCATDRYDVAYWGQGTLVTVSA
VL: EIVLTQSPALMAASPGEKVTITCSVSSSISSSNLHWYQQKSETSPKPWIYGTSNLASGVPVRFSGSGSGTSYSLTISSMEAEDAATYYCQQWSSYPLTFGAGTKLELK
notes: as for B9

Kd [4]: 9.9 nM
IC50 (read off the curve) [3]: ~4 nM
B13: anti-TIM-3 monoclonal antibody 6-I13-A (antibody, V domains shown)
VH: EVQLQQSGPELEKPGASVKISCKASGYSFTGYNMNWVKQSNGKSLEWIGNIDPYYGVTSYNQKFKGKATLTVDKSSSTAYMQLKSLTSEDSAVYYCASYSLTYDGYYPFAYWGQGTLVTVSA
VL: DIVLTQSPASLAVSLGQRATISCRASKSVSTSGYSYMHWYQQKPGQPPKLLIYLASNLESGVPARFSGSGSGTDFTLNIHPVEEEDAATYYCQHSRELPYTFGGGTKLEIK
notes: as for B9

Kd [4]: 3.1 nM
B14: anti-TIM-3 monoclonal antibody 10-O15-A (antibody, V domains shown)
VH: QVQLQQSGADLVRPGASVKLSCKALGYTFTDYEMHWVKQTPVHGLEWIGAIHPGSGGTAYNQKFKGKATLTADKSSSTAYMELSSLTSEDSAVYFCSRSYYRYTGYFDVWGAGTTVTVSS
VL: B13 VL with T31A, I79V, Y100F, G104S
notes: as for B9

Kd [4]: 1.1 nM
B15: anti-TIM-3 monoclonal antibody 18-N1-A (antibody, V domains shown)
VH: QVQLQQPGAELVRPGVSVKLSCKASGYTFTSYWMHWIKQRPEQGLERIGEINPSNGGTNYNEKFKNKATLTVDKSSSTAYMQLSSLTSEDSAVYYCARSYYTYDAIDYWGQGTSVTVSS
VL: DIVMSQSPSSLAVSAGEKVTMSCKSSQSLLNSRTRKNYLAWYQQKPGQSPKLLIYWASTRESGVPDRFTGSGSGTDFTLTISSVQAEDLAVYYCKQSYNLYTFGGGTKLEIK
notes: as for B9

Kd [4]: 1.6 nM
B17: anti-TIM-3 monoclonal antibody 8-F3-A (antibody, V domains shown)
VH: QIQLVQSGPELKKPGETVKISCKASGYTFTNYGMNWVKQAPGKGLKWMAWINTYTGEPTYADDFKGRFAFSLETSASTAYLQINNLKNEDTATYFCARDLEDYWGQGTTLTVSS
VL: DVVMTQTPLSLPVSLGDQASISCRSSQSLVHSNGNTYLHWYLQKPGQSPKLLIYKVSNRFSGVPDRFSGSGSGTDFTLKISRVEAEDLGVYFCSQTTHVPWTFGGGTKLEIK
notes: as for B9

Kd [4]: 13 nM
B18: anti-TIM-3 monoclonal antibody 15-L23-A (antibody, V domains shown)
VH: B17 VH with K23R, A49V, Y60F, N84I, L100T, E101M, T109S, L110V
VL: B17 VL with V2I, T96N
notes: as for B9

Continued, binder first:

B1: H1L1 (antibody, V domains shown)
VH: B3 VH with L74K
VL: B3 VL
notes: also called humanized version of anti-TIM-3 mAb 16-K5-A, VH H1 with VL L1
EC50 (read off the curve) [1]: ~0.07 nM

B2: H5L5 (antibody, V domains shown)
VH: QVQLQESGPGLVKPSETLSLTCTASGYTFTSSDINWVRQPPGKGLEWIGWIFPGDGSTKYNPSLKSRATLSTDKSKNQASLNLDSVSAADTAIYFCARGLDYWGKGSTVTVSS
VL: B3 VL with Q100P, L104V, E105D
notes: also called humanized version of anti-TIM-3 mAb 16-K5-A, VH H5 with VL L5
EC50 (read off the curve) [2]: ~0.2 nM

B4: H7L5 (antibody, V domains shown)
VH: B2 VH with T23K, D84S, S87T, I93V, S107T
VL: B3 VL with Q100P, L104V, E105D
notes: also called humanized version of anti-TIM-3 mAb 16-K5-A, VH H7 with VL L5
EC50 (read off the curve) [2]: ~0.1 nM

B5: 6-H6-A (antibody, V domains shown)
VH: EVQLQQFGAELVKPGASVKISCKASGYTFTDYNMDWVKQSHGKSLEWIGDIDPNYDSTTYNQKFKGKATLTVDKSSSTAYMELRSLTSEDTAVYYCARGGHYRYDGYYAMDYWGQGTSVTVSS
VL: DIVLTQSPASSAVSLGQRATFSCRASQSVSTSSYSFMHWYQQKPGQPPKLLIKYASNLESGVPARFSGSGSGTDFTLNIHPVEEEDTATYYCQHSWEIPPTFGGGTNLEIK
notes: also called anti-TIM-3 monoclonal antibody 6-H6-A
binding result [3]: binds

B6: anti-TIM-3 monoclonal antibody 1-A19-A (antibody, V domains shown)
VH: B5 VH with S57I, M110L
VL: DIVLTQSPASLAVSLGQRATISCKASQSVDYDGDSYMNWYQQKPGQPPKLLIYAASNLESGIPARFSGSGSGTDFTLNIHPVEEEDAATYYCQQSNEDPFTFGSGTKLEIK
notes: as for B9
Kd [4]: 2.2 nM

B8: anti-TIM-3 monoclonal antibody 16-K5-A (antibody, V domains shown)
VH: B7 VH
VL: B7 VL
notes: Mouse hybridoma mAb (parent of the humanized H1L1, H2L1, H5L5, H7L5); captured on anti-mouse Fc biosensors; also called mouse anti-TIM-3 mAb 16-K5-A
Kd [4]: 7.9 nM

B12: 7-N2-A (antibody, V domains shown)
VH: QVQLKESGPGLVAPSQSLSITCTVSGFSLTGFGVNWVRQPPGKGLEWLGMIWGDGSTDYNSTLKSRLSISKDNSKSQVFLKMNSLQTDDTARYYCARDYYGYVGNAMDYWGQGTSVTVSS
VL: DIVMSQSPSSLAVSAGEKVTMSCKSSQSLLNSRTRKNYLAWYQQKPGQSPKLLIYWASTRESGVPDRFTGSGSGTDFTLTISSVQAEDLAVYYCKQSYNHMYTFGGGTKLEIK
notes: also called anti-TIM-3 monoclonal antibody 7-N2-A
IC50 (read off the curve) [3]: ~7 nM

B16: anti-TIM-3 monoclonal antibody 20-L10-A (antibody, V domains shown)
VH: B17 VH with G44V, A49V, L100A, E101M, T109S, L110V
VL: B17 VL with T96N
notes: as for B9
Kd [4]: 10 nM
